Each block holds one substance with its values, some of them ahead of it.
What was measured:
Alpha fetoprotein [1] = biological target: Alpha fetoprotein (UniProt P02771); assay: multiplex sandwich, S10473 capture beads; AFP 1 ng/mL, no wash
Alpha fetoprotein [2] = biological target: Alpha fetoprotein (UniProt P02771); assay: multiplex sandwich, S10473 capture beads; AFP 0.5 ng/mL, washed
Alpha fetoprotein [3] = biological target: Alpha fetoprotein (UniProt P02771); assay: multiplex sandwich, S10473 capture beads; AFP 0.25 ng/mL, washed
Alpha fetoprotein [4] = biological target: Alpha fetoprotein (UniProt P02771); assay: multiplex sandwich, S10473 capture beads; AFP 250 ng/mL, no wash
[5] = biological target: Human chorionic gonadotropin (human) (UniProt P01215); assay: anti-AFP capture beads, flow cytometry; hCG 100.0 ng/mL, anti-AFP probe
Sequence of UniProt P01215 (P01215 25-116, chain 1 of 2, other chains not shown): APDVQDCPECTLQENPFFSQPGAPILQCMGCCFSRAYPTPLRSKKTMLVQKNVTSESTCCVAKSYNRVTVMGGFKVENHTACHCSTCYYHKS

Alpha fetoprotein [6] = biological target: Alpha fetoprotein (UniProt P02771); assay: anti-AFP capture beads, flow cytometry; AFP 1000.0 ng/mL, anti-AFP probe
[7] = biological target: Human chorionic gonadotropin (human) (UniProt P01215); assay: multiplex sandwich, MAB602 capture beads; hCG 4 ng/mL, no wash
[8] = biological target: Human chorionic gonadotropin (human) (UniProt P01215); assay: multiplex sandwich, MAB602 capture beads; hCG 2000 ng/mL, washed
Peptide 1 …-biotin = assay: single-analyte peptide bead, flow cytometry; MAB 384-Bodipy 15.5 ug/mL
Peptide 2 …-biotin = assay: as above
Peptide 3 …-biotin [9] = assay: as above
Peptide 4 …-biotin = assay: as above
[10] = biological target: Peptide 5 …-biotin (human); assay: as above
Peptide 6 …-biotin = assay: as above
Peptide 7 …-biotin = assay: as above
Peptide 8 …-biotin = assay: as above
Peptide 9 …-biotin = assay: as above
Peptide 3 …-biotin [11] = assay: multiplex peptide beads, flow cytometry; antibody pre-mixed with soluble HYGSLPQK 10 ug/mL (competitor m18)

Sequence of UniProt P02771 (P02771 19-609 limits assumed): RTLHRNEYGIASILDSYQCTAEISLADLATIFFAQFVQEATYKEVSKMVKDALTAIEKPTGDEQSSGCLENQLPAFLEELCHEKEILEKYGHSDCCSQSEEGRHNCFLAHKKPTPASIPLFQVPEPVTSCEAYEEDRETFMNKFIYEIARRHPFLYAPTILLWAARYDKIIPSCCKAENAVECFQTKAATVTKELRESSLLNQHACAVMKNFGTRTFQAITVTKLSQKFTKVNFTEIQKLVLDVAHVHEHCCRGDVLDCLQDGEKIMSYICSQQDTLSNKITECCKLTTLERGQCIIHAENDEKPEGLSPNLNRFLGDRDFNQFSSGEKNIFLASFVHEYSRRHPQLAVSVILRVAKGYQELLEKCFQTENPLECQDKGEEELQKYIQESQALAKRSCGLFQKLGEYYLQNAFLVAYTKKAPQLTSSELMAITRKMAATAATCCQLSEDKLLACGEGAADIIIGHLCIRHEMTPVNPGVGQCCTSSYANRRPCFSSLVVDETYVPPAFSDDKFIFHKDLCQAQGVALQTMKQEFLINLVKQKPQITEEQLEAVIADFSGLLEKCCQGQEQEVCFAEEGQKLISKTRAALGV

MIF of Fm (Alpha fetoprotein [1]): 33
MIF of Fm (Alpha fetoprotein [2]): 25
MIF of Fm (Alpha fetoprotein [3]): 24
MIF of Fm (Alpha fetoprotein [4]): 956
MIF of Fm [5]: 44
MIF of Fm (Alpha fetoprotein [6]): 348
Substance: M20077 affinity purified polyclonal anti-AFP antibody, Bodipy FL-CASE labeled

MIF of Fm [7]: 1120
MIF of Fm [8]: 3190
Substance: AB633 affinity purified polyclonal anti-hCG antibody, Bodipy FL-CASE labeled

MIF of Fm (Peptide 1 …-biotin): 72
MIF of Fm (Peptide 2 …-biotin): 57
MIF of Fm (Peptide 3 …-biotin [9]): 47
MIF of Fm (Peptide 4 …-biotin): 57
MIF of Fm [10]: 1380
MIF of Fm (Peptide 6 …-biotin): 43
MIF of Fm (Peptide 7 …-biotin): 42
MIF of Fm (Peptide 8 …-biotin): 73
MIF of Fm (Peptide 9 …-biotin): 60
MIF of Fm (Peptide 3 …-biotin [11]): 12
Substance: MAB 384, Bodipy FL-X labeled (antibody)

— patent publication US20040059519A1
